± gives the half width of the 95% confidence interval.
Columns and labels:
[1] = folding stability dG unfold from chymotrypsin proteolysis; higher = more stable
Protocol: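 Folding stability of de novo designed mini-proteins (<80 aa, no Cys; designed by TrROS, TrMRF, ProteinMPNN and the joint model) was measured by cDNA display proteolysis with trypsin and chymotrypsin. Each protease was used at 11 concentrations in a threefold dilution series plus a no-protease condition. K50 was inferred by Bayesian fitting of sequencing counts, and dG unfold was derived against a sequence-predicted unfolded-state K50 (Tsuboyama et al. method). Sequences shown include variable-length N-terminal GS-type padding (SAGGSAGG...) inside a display construct carrying a PA tag. Rows were kept only if the AF2 dimer inter-PAE was >15, to exclude likely homo-oligomers.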

[2] = folding stability dG unfold (combined trypsin and chymotrypsin); higher = more stable
Method in brief: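 Sequencing followed digestion of designed mini-proteins with trypsin and chymotrypsin, each at 11 concentrations in threefold dilutions together with a no-protease condition. The mini-proteins were under 80 residues, had no cysteine, sat in a PA-tagged cDNA display construct, and were kept only if AlphaFold2 dimer inter-PAE was above 15. From the counts, Bayesian fitting gave K50, and unfolding free energy was derived against a sequence-predicted unfolded-state K50 and a shared folded-state K50, per protease or combined.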

Sequence | folding stability dG unfold [1] [kcal/mol] | folding stability dG unfold [2] [kcal/mol]
SAGGSAMSRTITVEITDPRNGKKLKNVVIDVPEDEDISDEEILKKIGIPEKEAKNIKVSKTTEELESAGGSA [r15_665_JUSTAS] | 0.365 ± 0.17 | 0.169 ± 0.19
SAGGSAGGSAGPTITYHPDGRVRIDLHLPNGELLDTGVITPDEAVRLLLETGVRLRTIRPSAGGSAGGSAGG [r11_521_TrMRF] | 0.662 ± 0.11 | 0.166 ± 0.19
SAGTITKLKTEYDPKGYRFIELLDPLPNDPSVPAEALAQEIKEKYGAEKAEIKPVPGTGAIRILLIKPESAG [r14_228_JUSTAS] | -0.396 ± 0.48 | -0.67 ± 0.42
SAGGSAGGSAGGSEEKPIPIKVKIWKPNPGELVEEKEYLIPSNGSAEEIKKAFPNAEISSAGGSAGGSAGGS [r4_187_TrMRF] | 0.689 ± 0.15 | 0.12 ± 0.3
SAGGNIEIEIPIPKEDLKDNDFEEAKEYVREYVRMIAREQGLPPGFPIKDIDVQPHPNYYMVKIEIPSAGGS [r16_368_TrROS] | 0.868 ± 0.26 | 0.401 ± 0.16
SAGGSAGGSTLVFAPDDTLYLRIYLPETGGWRYIEVPAGQADSVARPLGAVRLEAYRRDEPVPSAGGSAGGS [r12_294_TrMRF] | 0.83 ± 0.23 | 0.123 ± 0.15
SAGGSANAEEIADWLQDRGFKEVEIEKDPENGNVTVEIRNPGGYEWELTINPKNPKITEIEPRPKKSAGGSA [r15_648_TrROS] | 0.0797 ± 0.097 | -0.523 ± 0.42
SAGGSAGGSTVEELKKKAKELGLEVTVEKNKKDKKKITITVSEEAKKKLKEIAKEENIKVEIKSAGGSAGGS [r12_74_TrROS_Hall] | 0.0632 ± 0.051 | -0.473 ± 0.47
SAGGMPKKITKLELLSETYDPLTNTYTVTVRATFDDGTEKVIELTLPRSEYEKLSKEEIKKRAIDLLLSAGG [r13_512_JUSTAS] | 5.29 ± 0.12 | 5.52 ± 0.34
SAGGKKTVEIPIWMPYDDAKNIAKEAVEEAAASNDNVTVTIEIWQWEPDPNGKPEWQPIGKAEIKVPPSAGG [r13_974_TrROS] | -0.013 ± 0.064 | -0.43 ± 0.19
SAGGSAGGSARIDFPAIRRLLGSEAPAEDVVEAVEVIAKELAEELNLPDVEVDPRVVAPDELESAGGSAGGS [r12_666_TrMRF] | 0.638 ± 0.068 | 0.102 ± 0.22
SAGGNIPPGETWKIKFPGKPIEIQMQQINGKPMYRLRDKNNKPHGTMTPDEADEFLDKLPPNWEIERYSAGG [r13_657_TrROS] | -0.253 ± 0.37 | -0.353 ± 0.22
SAGGSAGGSAPLVLVAPGDAPVTVYPDPETGTYVAVFPDGSVLVAPVVGDVVPVVLLPPGLASAGGSAGGSA [r18_405_TrMRF] | 0.677 ± 0.19 | -0.31 ± 0.23
SVIIKGPGPETYYVEKFGNETKITKFSTEGDKFYKKEYYETFDPNNKTVSRKENEVEEIEPEEEKPFSELSA [r9_83_JUSTAS] | 0.546 ± 0.11 | 0.0208 ± 0.11
SAGGSAGGSATLTVEVLEEVVEPVPDPSLTPVRLLVRDPANGELREAVVIRDPRRGALRLESAGGSAGGSAG [r3_1_JUSTAS] | 0.0495 ± 0.22 | -0.488 ± 0.22
SAGGSAGGSAGSAPAGALVTEEVSLEETETFFDPTTKKPLRTVRVTVPVKRERVVSPALPSAGGSAGGSAGG [r11_970_JUSTAS] | -0.795 ± 0.69 | < -1
SAGGSAGGSGNPTPPAEPTVTLSTSDWNEVKERVEKAGLEYETFPGEGKVTLPASDFEKIKEESAGGSAGGS [r12_325_JUSTAS] | 0.356 ± 0.049 | -0.00313 ± 0.14
SAGGSAGGSAMKITINVSPDEPGVTIEEAKKRLAPHPVEKVTQTPLPSNSLVVTVDVSPEASAGGSAGGSAG [r3_335_JUSTAS] | -0.457 ± 0.2 | < -1
SAGGSAGGSAGMVVETEVLETTPPGRTVRTRTTTREKTPDNAPVTTESESVTEVPSPPLESAGGSAGGSAGG [r11_689_JUSTAS] | 0.615 ± 0.026 | 0.273 ± 0.081
SSPVVVSESTDPNSSTKTITVTLPPNARVTLTLPGEPVETRPQPDATATLTTGPDALDITIEPLPPGVPLSA [r9_221_JUSTAS] | 0.474 ± 0.1 | -0.714 ± 0.24
SAGGSAGGSAMNVTTETRTDPVTGNTTTTTTYTDTGEVVTTTTTTPPETTTTTTTTTSLTKSAGGSAGGSAG [r3_126_JUSTAS] | 0.982 ± 0.07 | 0.524 ± 0.2
SAGGSAGGSAGGMRTFPSESLETLPENGLRKKTLTVTYVPPDNPERSYVETEVEIIPSEVSAGGSAGGSAGG [r17_241_JUSTAS] | -1.03 ± 0.34 | < -1
SAPAVETRSVTTEPVASPTPRVPYTLVVESVTTTAVDAAGTPVATSVSLKEVRYGDGTISRTFSATPTASAG [r14_848_JUSTAS] | -0.953 ± 0.29 | < -1

— the supplement of paper PMC12764529
